# Results reported in patent publication US20250223330A1 (OUTPACE BIO, published 2025).
# T1: CD25-Fc (UniProt P01589 22-213, limits assumed)
# T1 construct: Bought reagent; The same stock (100 ug/mL aliquots) was used as CD25-Fc in the ELISA and as IL2Ra-Fc on ProA tips in the Octet assay; also called IL2Ra-Fc; CD25 (IL2Ra); not shown: Fc part of the bought fusion
# T1 sequence (looked up): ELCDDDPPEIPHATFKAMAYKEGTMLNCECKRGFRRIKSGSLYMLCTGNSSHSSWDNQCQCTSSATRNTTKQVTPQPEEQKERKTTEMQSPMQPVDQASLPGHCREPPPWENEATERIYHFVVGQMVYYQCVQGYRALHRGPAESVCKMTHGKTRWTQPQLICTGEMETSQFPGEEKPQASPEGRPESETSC
# T2: IL2Rb/g-Fc (UniProt P14784 27-239; P31785 23-262, limits assumed)
# T2 construct: Captured at 12 ug/mL on ProA tips; also called IL-2/15Rβγ; IL-2Rβγ; not shown: Fc part
# T2 sequence (looked up) 1: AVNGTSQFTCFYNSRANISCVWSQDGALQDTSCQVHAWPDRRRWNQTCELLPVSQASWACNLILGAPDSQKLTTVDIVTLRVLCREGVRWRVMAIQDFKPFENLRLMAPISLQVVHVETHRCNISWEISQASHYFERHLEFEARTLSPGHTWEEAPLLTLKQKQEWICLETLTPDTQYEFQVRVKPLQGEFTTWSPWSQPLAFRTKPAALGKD
# T2 sequence (looked up) 2: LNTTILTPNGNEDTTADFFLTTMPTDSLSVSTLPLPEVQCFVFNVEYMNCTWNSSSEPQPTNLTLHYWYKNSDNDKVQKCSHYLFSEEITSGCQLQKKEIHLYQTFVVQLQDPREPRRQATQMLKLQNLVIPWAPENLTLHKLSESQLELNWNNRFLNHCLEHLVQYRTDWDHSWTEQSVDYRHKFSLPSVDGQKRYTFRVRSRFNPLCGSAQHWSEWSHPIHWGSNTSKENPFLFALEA
# Molecular target: T1, CD25-Fc
# Assay: ELISA, STII-tagged cytokine captured on Strep-Tactin plate, CD25-Fc detected (FIG. 5A)
# Conditions: not given
row,Molecule,binding result
1,"SEQ ID NO 38 (designed binder, ELISA captured STII-tagged protein from supernatant; also called Designed Cytokine No. 38) APTSSSTKKTQLQLEHLLLDLQMILNGINNMNADPELVEFLNRWITFCQTAISTGKDNLKHLQALEEELKPLEEVLNLAQSKNFHLRPRDLISNINVIVLELKGS",no binding
2,"SEQ ID NO 29 (designed binder, ELISA captured STII-tagged protein from supernatant; also called Designed Cytokine No. 29) APTSSSTKKTQLQLEHLLLDLQMILNALNKLNINDHIVEFLNRWITFCQSATSDPDLLKHLQALEERLKPLEEVLNRAQSKNFHLRPRDLISNINVIVLELKGS",no binding
3,"SEQ ID NO 26 (designed binder, ELISA captured STII-tagged protein from supernatant; also called Designed Cytokine No. 26) APTSSSTKKTQLQLEHLLLDLQMILNFPVDSEMVEFLNRWITFAEKGTEDALKELQALEEELKPLEEVLNLAQSKNFHLRPRDLISNINVIVLELKGS",no binding
4,"SEQ ID NO 31 (designed binder, ELISA captured STII-tagged protein from supernatant; also called Designed Cytokine No. 31) APTSSSTKKTQLQLEHLLLDLQMILNFPVDSEMVEFLNRWITFAEKGTEDALKELQALEERLKPLEEVLNRAQSKNFHLRPRDLISNINVIVLELKGS",no binding
5,"SEQ ID NO 23 (designed binder, ELISA captured STII-tagged protein from supernatant; also called Designed Cytokine No. 23) APTSSSTKKTQLQLEHLLLDLQMILNFPVDSEMVEFLNRWITFAQKGDESALKHLQALEEELKPLEEVLNLAQSKNFHLRPRDLISNINVIVLELKGS",no binding
6,"SEQ ID NO 25 (designed binder, ELISA captured STII-tagged protein from supernatant; also called Designed Cytokine No. 25) APTSSSTKKTQLQLEHLLLDLQMILNFPVDSEMVEFLNRWITFAEKGTEDANKELQALEEELKPLEEVLNLAQSKNFHLRPRDLISNINVIVLELKGS",no binding
7,"SEQ ID NO 19 (designed binder, ELISA captured STII-tagged protein from supernatant; also called Designed Cytokine No. 19) APTSSSTKKTQLQLEHLLLDLQMIANALNKLGIESPFLNRWITFCQSNHEDAAKHLQALEEELKPLEEVLNLAQSKNFHLRPRDLISNINVIVLELMGS",no binding
8,"SEQ ID NO 24 (designed binder, ELISA captured STII-tagged protein from supernatant; also called Designed Cytokine No. 24) APTSSSTKKTQLQLEHLELDLQMILNLAEVDPTMKEFLNRWITEAQSSNATLKSLQALEEELKPLEEVLNLAQSKNFHLRPRDLISNINVIVLELKGS",no binding
9,"SEQ ID NO 34 (designed binder, ELISA captured STII-tagged protein from supernatant; also called Designed Cytokine No. 34) APTSSSTKKTQLQLEHLLLDLQMILNGINNYKNPKLTEIDPKLVEFLNRWITFCQSAIKSGSNTAKELQALEEELKPLEEVLNLAQSKNFHLRPRDLISNINVIVLELAGS",no binding
10,"SEQ ID NO 28 (designed binder, ELISA captured STII-tagged protein from supernatant; also called Designed Cytokine No. 28) APTSSSTKKTQLQLEHLLLDLQMILNGAEVDPKIKEFLNRWITFCQSVIKANKDTREELKHLQALEERLKPLEEVLNRAQSKNFHLRPRDLISNINVIVLELKGS",no binding
11,"SEQ ID NO 17 (designed binder, ELISA captured STII-tagged protein from supernatant; also called Designed Cytokine No. 17) APTSSSTKKTQLQLEHLLLDLQMILNGMNNGNADPELVEFLNRWITFAQDGSADLKHLQALEEELKPLEEVLNLAQSKNFHLRPRDLISNINVIVLELKGS",no binding
12,"SEQ ID NO 18 (designed binder, ELISA captured STII-tagged protein from supernatant; also called Designed Cytokine No. 18) APTSSSTKKTQLQLEHLLLDLQMILNGINNMNADPELVEFLNRWITFAQDGSADLKHLQALEEELKPLEEVLNLAQSKNFHLRPRDLISNINVIVLELKGS",no binding
13,"SEQ ID NO 37 (designed binder, ELISA captured STII-tagged protein from supernatant; also called Designed Cytokine No. 37) APTSSSTKKTQLQLEHLLLDLQMILNGINNYKNPKLTKLDPSLVEFLNRWITFCQSATSDPDLLKHLQALEEELKPLEEVLNLAQSKNFHLRPRDLISNINVIVLELKGS",no binding
14,"SEQ ID NO 32 (designed binder, ELISA captured STII-tagged protein from supernatant; also called Designed Cytokine No. 32) APTSSSTKKTQLQLEHLLLDLQMILNGINNYKNPKLTRMLTFGGTATIVEFLNRWITACQREADPEALQALEEELKPLEEVLNLAQSKNFHLRPRDLISNINVIVLELMGS",no binding
15,"SEQ ID NO 33 (designed binder, ELISA captured STII-tagged protein from supernatant; also called Designed Cytokine No. 33) APTSSSTKKTQLQAEHLLLDLQMILNGINNYKNPKLTRMLTFGGTATIVEFLNRWITFCESGADEEAAKSLQALEEELKPLEEVLNLAQSKNFHLRPRDLISNINVIVLELKGS",no binding
16,"SEQ ID NO 21 (designed binder, ELISA captured STII-tagged protein from supernatant; also called Designed Cytokine No. 21) APTSSSTKKTQLQLEHLLLDLQMILNALKKLNINSPMQEFLNRWITFCESNTEDALKHLQALEEELKPLEEVLNLAQSKNFHLRPRDLISNINVIVLELKGS",no binding
17,"SEQ ID NO 30 (designed binder, ELISA captured STII-tagged protein from supernatant; also called Designed Cytokine No. 30) APTSSSTKKTQLQLEHLLLDLQMILNALKKLNINSPMQEFLNRWITFCESNTEDALKHLQALEERLKPLEEVLNRAQSKNFHLRPRDLISNINVIVLELKGS",no binding
18,"SEQ ID NO 22 (designed binder, ELISA captured STII-tagged protein from supernatant; also called Designed Cytokine No. 22) APTSSSTKKTQLQLEHLLLDLQMILNLAEVDPTMKEFLNRWITFCESNSESALKHLQALEEELKPLEEVLNLAQSKNFHLRPRDLISNINVIVLELKGS",no binding
19,"SEQ ID NO 35 (designed binder, ELISA captured STII-tagged protein from supernatant; also called Designed Cytokine No. 35) APTSSSTKKTQLQLEHLLLDLQMILNGINNYKNPKLTEIDPKLVEFLNRWITFCQTIINGGESATLKHLQALEEELKPLEEVLNLAQSKNFHLRPRDLISNINVIVLELKGS",no binding
20,"SEQ ID NO 36 (designed binder, ELISA captured STII-tagged protein from supernatant; also called Designed Cytokine No. 36) APTSSSTKKTQLQLEHLLLDLQMILNGINNYKNPKLTEIDPKLVEFLNRWITFCQSIINGDESFSLKHLQALEEELKPLEEVLNLAQSKNFHLRPRDLISNINVIVLELKGS",no binding
21,"SEQ ID NO 20 (designed binder, ELISA captured STII-tagged protein from supernatant; also called Designed Cytokine No. 20) APTSSSTKKTQLQLEHLLLDLQMIANALNKLGIESPFLNRWITFCQSVISASDDTREELKHLQALEEELKPLEEVLNLAQSKNFHLRPRDLISNINVIVLELKGS",no binding
22,"SEQ ID NO 27 (designed binder, ELISA captured STII-tagged protein from supernatant; also called Designed Cytokine No. 27) APTSSSTKKTQLQLEHLLLDLQMILNGINNMNADPELVEFLNRWITFCQSLIKKGSNEDLKHLQALEERLKPLEEVLNRAQSKNFHLRPRDLISNINVIVLELKGS",no binding

# Molecular target: T1, CD25-Fc
# Assay: ELISA, STII-tagged cytokine captured on Strep-Tactin plate, CD25-Fc detected
# Conditions: not given
row,Molecule,binding result
1,Designed Cytokine No. 39 (designed binder) APTSSSTKKTQLQLEHLLLDLQMILNGINNMNADPELVEFLNRWITFCQSLIKKGSNEDLKHLQALEEELKPLEEVLNLAQSKNFHLRPRDLISNINVIVLELKGSGSGGSGNWSHPQFEK,no binding
2,Designed Cytokine No. 40 (designed binder) APTSSSTKKTQLQLEHLLLDLQMILNGINNGNADPELVEFLNRWITFCQSLIKKGSNEDLKHLQALEEELKPLEEVLNLAQSKNFHLRPRDLISNINVIVLELKGSGSGGSGNWSHPQFEK,no binding

# Molecular target: T2, IL2Rb/g-Fc
# Assay: Octet (BLI), IL2Rb/g-Fc captured on ProA tips, cytokine in solution
# Conditions: not given
row,Molecule,Kd [nM]
1,"Designed Cytokine No. 153 (designed binder, also called Design 3) APTSSSTKKTQLQLEHLLLDLQMILNGINNMNADPELVEFLNRWITFCQSIISTGSVDPEELAKELQKLEEELKPLEEVLNLAQSKNFHLRPRDLISNINVIVLELKGSGSGNWSHPQFEK",3.9
2,"Designed Cytokine No. 169 (designed binder, also called Design 1) APTSSSTKKTQLQLEHLLLDLQMILNGINNMNADPELVEFLNRWITFCQSIISTGSLEDLKHLQALEEELKPLEEVLNLAQSKNFHLRPRDLISNINVIVLELKGSGSGNWSHPQFEK",~1.6

# Molecular target: CD25-Fc (UniProt P01589)
# Assay: BLI
# Conditions: ligand
row,Molecule,Kd [nM]
1,WT IL-2 (from UniProt P60568 21-153),20
